Tests used:
A475V (SARS-CoV-2) = experiment: kinetic measurement, method not stated; table row A475V
E484K (SARS-CoV-2) = experiment: kinetic measurement, method not stated; table row E484K
L452R (SARS-CoV-2) = experiment: kinetic measurement, method not stated; table row L452R
K417N (SARS-CoV-2) = experiment: kinetic measurement, method not stated; table row K417N
F490L (SARS-CoV-2) = experiment: kinetic measurement, method not stated; table row F490L
N501Y (SARS-CoV-2) = experiment: kinetic measurement, method not stated; table row N501Y
B.1.351 (Gamma) = experiment: kinetic measurement, method not stated; table row B.1.351 (Gamma)
N439K (SARS-CoV-2) = experiment: kinetic measurement, method not stated; table row N439K

NIH-CoVnb-112 (VHH), sequence (VHH): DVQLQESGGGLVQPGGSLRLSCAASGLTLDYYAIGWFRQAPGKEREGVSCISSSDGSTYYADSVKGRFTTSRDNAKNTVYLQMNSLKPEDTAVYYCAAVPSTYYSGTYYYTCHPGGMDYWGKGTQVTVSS

NIH-CoVnb-112 (VHH)
koff (A475V (SARS-CoV-2)): 0.000209 s⁻¹ | kon (A475V (SARS-CoV-2)): 169000 M⁻¹ s⁻¹ | koff (E484K (SARS-CoV-2)): 0.000304 s⁻¹ | kon (E484K (SARS-CoV-2)): 256000 M⁻¹ s⁻¹ | koff (L452R (SARS-CoV-2)): 0.00127 s⁻¹ | kon (L452R (SARS-CoV-2)): 209000 M⁻¹ s⁻¹ | koff (K417N (SARS-CoV-2)): 0.000157 s⁻¹ | kon (K417N (SARS-CoV-2)): 120000 M⁻¹ s⁻¹ | koff (F490L (SARS-CoV-2)): 0.000926 s⁻¹ | kon (F490L (SARS-CoV-2)): 158000 M⁻¹ s⁻¹ | koff (N501Y (SARS-CoV-2)): 0.000428 s⁻¹ | kon (N501Y (SARS-CoV-2)): 153000 M⁻¹ s⁻¹ | koff (B.1.351 (Gamma)): 0.000705 s⁻¹ | kon (B.1.351 (Gamma)): 201000 M⁻¹ s⁻¹ | koff (N439K (SARS-CoV-2)): 0.000302 s⁻¹ | kon (N439K (SARS-CoV-2)): 189000 M⁻¹ s⁻¹
